The target in test [1] is T1, full-length Sudan GP (GPFL) (Sudan virus (SUDV), UniProt Q7T9D9 33-650).
T1 construct: also called Sudan GPFL; GP(S)FL
T1 sequence: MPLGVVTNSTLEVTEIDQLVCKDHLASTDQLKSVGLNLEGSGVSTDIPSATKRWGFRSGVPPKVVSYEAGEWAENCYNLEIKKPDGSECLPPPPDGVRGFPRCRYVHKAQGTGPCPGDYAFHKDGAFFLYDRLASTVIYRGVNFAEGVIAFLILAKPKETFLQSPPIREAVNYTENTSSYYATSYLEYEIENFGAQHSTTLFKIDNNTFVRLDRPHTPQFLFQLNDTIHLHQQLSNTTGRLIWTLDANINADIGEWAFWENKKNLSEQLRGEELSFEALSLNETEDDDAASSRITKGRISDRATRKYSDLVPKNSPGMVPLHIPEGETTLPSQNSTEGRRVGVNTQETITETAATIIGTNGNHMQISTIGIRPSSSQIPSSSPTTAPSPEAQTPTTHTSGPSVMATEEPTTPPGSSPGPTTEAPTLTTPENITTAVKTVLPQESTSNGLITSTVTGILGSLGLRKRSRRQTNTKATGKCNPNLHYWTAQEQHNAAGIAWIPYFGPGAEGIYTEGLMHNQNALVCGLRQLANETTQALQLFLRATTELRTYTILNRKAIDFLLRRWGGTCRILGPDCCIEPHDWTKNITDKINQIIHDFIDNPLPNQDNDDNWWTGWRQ
Description: BLI, Fab, pH 5.3. In general terms: BLI is a label-free optical method that tracks binding on a fibre tip over time.

Test [2] has as its target T1, full-length Sudan GP (GPFL). Put plainly: BLI, Fab, pH 7.4.
For test [3], the target named is T2, EBOV GP on pseudotyped lentiviral vector (Ebola (Zaire) virus (EBOV), UniProt Q05320 33-676).
T2 sequence: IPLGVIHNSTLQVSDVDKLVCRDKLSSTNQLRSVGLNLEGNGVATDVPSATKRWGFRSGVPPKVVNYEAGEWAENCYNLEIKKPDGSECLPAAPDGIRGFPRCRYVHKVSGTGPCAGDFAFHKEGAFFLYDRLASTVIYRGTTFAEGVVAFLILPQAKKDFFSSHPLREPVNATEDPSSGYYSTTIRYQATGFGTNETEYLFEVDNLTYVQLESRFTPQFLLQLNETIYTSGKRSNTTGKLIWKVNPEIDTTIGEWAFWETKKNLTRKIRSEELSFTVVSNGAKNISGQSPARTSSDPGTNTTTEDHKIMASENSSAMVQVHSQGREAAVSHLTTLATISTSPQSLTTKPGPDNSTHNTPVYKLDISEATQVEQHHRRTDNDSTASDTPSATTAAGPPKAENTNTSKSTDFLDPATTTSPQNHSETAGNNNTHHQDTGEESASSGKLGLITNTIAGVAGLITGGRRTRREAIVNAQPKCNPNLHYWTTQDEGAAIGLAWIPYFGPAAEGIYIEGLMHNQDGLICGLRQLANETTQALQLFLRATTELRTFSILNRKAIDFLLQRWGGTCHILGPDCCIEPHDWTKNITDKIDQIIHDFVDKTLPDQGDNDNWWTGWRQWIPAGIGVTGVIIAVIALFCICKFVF
Description: cell-based or functional assay.

Test [4] has as its target T3, SUDV GP on pseudotyped lentiviral vector (Sudan virus (SUDV), UniProt Q7T9D9 33-676).
T3 sequence: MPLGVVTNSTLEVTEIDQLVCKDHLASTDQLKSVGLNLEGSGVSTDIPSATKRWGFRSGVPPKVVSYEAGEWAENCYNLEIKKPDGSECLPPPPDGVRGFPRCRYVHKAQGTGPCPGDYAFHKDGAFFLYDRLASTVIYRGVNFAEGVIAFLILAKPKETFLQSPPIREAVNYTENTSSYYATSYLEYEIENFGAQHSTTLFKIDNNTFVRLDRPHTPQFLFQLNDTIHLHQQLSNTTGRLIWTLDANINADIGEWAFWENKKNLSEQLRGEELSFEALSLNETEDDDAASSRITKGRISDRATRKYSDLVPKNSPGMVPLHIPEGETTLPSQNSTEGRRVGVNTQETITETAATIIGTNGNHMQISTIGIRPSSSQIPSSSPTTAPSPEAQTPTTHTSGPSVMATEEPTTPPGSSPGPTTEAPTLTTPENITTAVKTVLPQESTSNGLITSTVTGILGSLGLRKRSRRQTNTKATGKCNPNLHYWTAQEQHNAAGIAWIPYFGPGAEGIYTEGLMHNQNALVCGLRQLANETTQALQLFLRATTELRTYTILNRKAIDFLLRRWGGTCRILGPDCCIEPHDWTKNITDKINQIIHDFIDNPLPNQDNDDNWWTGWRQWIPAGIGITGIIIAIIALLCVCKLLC
Put plainly: cell-based or functional assay.

The target in test [5] is T1, full-length Sudan GP (GPFL). Description: ELISA on coated GP. For orientation: In an ELISA, binding on a coated surface is turned into a signal by an enzyme label.
Test [6] has as its target T4, full-length Zaire GP (GPFL) (Ebola (Zaire) virus (EBOV), UniProt Q05320 33-632).
T4 construct: also called Zaire GPFL; GP(Z)FL
T4 sequence: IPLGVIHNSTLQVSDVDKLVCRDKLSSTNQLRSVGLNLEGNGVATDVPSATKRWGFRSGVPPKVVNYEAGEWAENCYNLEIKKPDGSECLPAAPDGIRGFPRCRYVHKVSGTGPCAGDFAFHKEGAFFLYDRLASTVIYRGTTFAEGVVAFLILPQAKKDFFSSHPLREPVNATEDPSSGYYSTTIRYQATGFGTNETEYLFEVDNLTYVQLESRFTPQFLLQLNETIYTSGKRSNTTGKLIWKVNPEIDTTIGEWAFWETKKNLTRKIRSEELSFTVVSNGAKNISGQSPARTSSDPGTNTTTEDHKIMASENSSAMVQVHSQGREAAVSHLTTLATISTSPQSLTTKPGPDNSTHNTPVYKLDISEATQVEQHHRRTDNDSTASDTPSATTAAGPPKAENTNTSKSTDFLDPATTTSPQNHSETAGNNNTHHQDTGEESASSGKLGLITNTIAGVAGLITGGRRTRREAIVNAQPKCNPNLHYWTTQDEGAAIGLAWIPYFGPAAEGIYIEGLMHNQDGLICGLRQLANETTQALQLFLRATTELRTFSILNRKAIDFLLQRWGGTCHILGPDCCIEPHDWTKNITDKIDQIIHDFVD
Put plainly: ELISA on coated GP.

In test [7] the target is T1, full-length Sudan GP (GPFL). Description: BLI, Fab, pH 5.3. This is another data set of the same source.
The target is the same in test [8]. Put plainly: BLI, Fab, pH 7.4. This is another data set of the same source.
Test [9] deals with T4, full-length Zaire GP (GPFL). Put plainly: BLI, Fab, pH 7.4.

Where a chain is given by its changes, count along the chain named.

B1: Fab generated from 291S (Fab, V domains shown)
VH: QVQLQESGPGLVKPSQTLSLTCTVSGGSFSSGFYWSWIRQRPGKGLEWVGYTYYSGSTYYNPSLQSRVTISVDTSKNQFSLNLSSVTAADTAVYHCARADYGGLFDYWGQGILVTVSS
VL: QSVLTQPSSLSASPGASASLTCTLRSGINVGTYRIFWYQQKPGSPPQFLLRYNSDSDKQQGSGVPSRFSGSKDASANAGILLISGLQSEDEADYYCMIWHTSAWVFGGGTKLTVL
In general, Kd refers to the equilibrium constant for the complex coming apart. Low values mean higher affinity, high ones lower affinity. By koff is commonly meant a measure of how fast the partners let go of each other. A higher koff goes with a short-lived complex. One may read the kon as the rate constant with which the complex forms. A higher kon goes with faster complex formation. In [1], B1 returned a Kd of 4.27 nM, a koff of 0.00011 s⁻¹ and a kon of 25700 M⁻¹ s⁻¹. In test [2], the Kd came out at 2.97 nM, the koff was determined as 0.000131 s⁻¹ and the kon is 44200 M⁻¹ s⁻¹.

B2: Fab generated from 545S (Fab, V domains shown)
VH: QVQLQESGPGLVKPSQTLSLTCTVSGGSISRAGSYWSWIRQHPGKGLEWIGYISYSGSTYYNPSLESRVTMSLDTSKSQFSLKLSSVTAADTAVYYCAREDRSGFYGLDVWGQGTTVTVSS
VL: B1 VL with S17T, G31D, F36Y, F48Y, N53K, Q59H, E89A, T101S, S102G, L115Q
notes: also called 545S Fab
With B2, in [1], the Kd worked out at 1.97 nM, the koff was found to be 0.000147 s⁻¹ and the kon was determined as 74300 M⁻¹ s⁻¹. In test [2], this molecule registered a Kd of 1.26 nM, a koff of 0.000125 s⁻¹ and a kon of 99200 M⁻¹ s⁻¹.

B3: antibody 310L (antibody, V domains shown)
VH: EMQLVESGGGLVQPGGSLRLSCAASGFTFDAYAMHWVRQRPGKGLEWISGIIWSGRTTYYADSVKGRFTFSRDNSKNSLYLEMNSLKPEDTALYYCAKDSWNYGVYNSLDVWGRGILVTVSS
VL: QSVLTQPPSVSGAPGQRVTISCTGSSSNVGPHYVSWYQHLPGTTPKLLIFQDNKRPSGVSDRFSGSKSASSASLTITGLQTEDEADYYCLSYDSSLNVYIFGSGTRLTVL
What is called EC50 is the concentration that produces a half-maximal response. A low value points to greater potency. For the molecule B3, the “IC50, microneutralization of GP-pseudotyped lentiviral vector on HEK293 cells” value in test [3] and in test [4] was over 10 µg/mL each time. The EC50 in [5] worked out at 0.04 µg/mL; in [6] it was 0.01 µg/mL.

B4: Fab generated from 316L (Fab, V domains shown)
VH: EERLVESGGGLVQPGGSLRLSCAASGFTFGDYAMHWVRQVPGKSLEWLSGISWSGYTTYSADSVKGRFTISRDNAKNSLYLQMNRLRPEDTGLYYCVTLIGAIGIKDSLDVWGRGVLVTVSS
VL: QSVLTQPPSVSGAPGQRVTVSCSGSSSNIGAGNYVQWYQQLPGTAPKVLIYQTEKRPSGTSDRFSGSKSDTSASLTINGLQSEDEADYYCQVYDSNLNGWVFGGGTRLTVL
notes: also called 316L Fab
On to B4, for which, in test [7], the Kd turned out to be 1.26 nM, the koff is 0.000139 s⁻¹ and the kon worked out at 110000 M⁻¹ s⁻¹. In test [8], this molecule registered a Kd of 1.16 nM, a koff of 0.000157 s⁻¹ and a kon of 135000 M⁻¹ s⁻¹. In test [9], this molecule yielded a Kd of 38.1 nM, a koff of 0.00263 s⁻¹ and a kon of 69000 M⁻¹ s⁻¹.

B5: Fab generated from 380L (Fab, V domains shown)
VH: EVQLVESGGGLVQPGGSLTLSCAASGFTFGDYVMHWVRQVPGRGLEWLSAVSWSGYTTYSADSVKGRFTISRDNAKNSLYLQMSRLGTADTGLYYCVTLIGAIGIRDSFDAWGRGVLVTVSS
VL: B4 VL with V10M, S23T, E54D, T60I, D70G, N78S, N96S
notes: also called 380L Fab
Consider B5, for which the Kd worked out at 3.87 nM in test [7], 2.85 nM in test [8] and 19.8 nM in test [9]. Also, the values for the koff in test [7], in test [8] and in [9] were 0.000326 s⁻¹, 0.00029 s⁻¹ and 0.00148 s⁻¹, respectively. For the same molecule, the figures for the kon in test [7], in test [8] and in test [9] were 84200 M⁻¹ s⁻¹, 101000 M⁻¹ s⁻¹ and 63000 M⁻¹ s⁻¹, respectively.
